Results reported in the RNAGym collection of RNA variant scans (doi:10.1073/pnas.2313332121).
Fewer inactive variants are shown than the library holds.

B1: TPR 5TU (parent)
chain: GGAUCUUCUCGAUCUAACAAAAAAGACAAAUCUGCCACAAAGCUUGAGAGCAUCUUCGGAUGCAGAGGCGGCAGCCUUCGGUGGCGCGAUAGCGCCAACGUUCUCAACUAUGACACGCAAAACGCGUGCUCCGUUGAAUGGAGUUUAUCAUG

Variants of: B1
Assay: polymerase ribozyme fitness, log enrichment relative to wild type (log ratio); higher = more active; in vitro selection for triplet polymerase activity
How it was run: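 Mutant libraries of each subunit of a heterodimeric triplet polymerase ribozyme were built by PCR and transcribed. Each library went through one round of in vitro selection in triplicate: annealing with biotinylated primer, partner subunit and triplets, frozen incubation at −7 °C, gel excision of extended constructs, streptavidin-bead capture and RT-PCR. Input and output libraries were Illumina-sequenced; only genotypes with ≥10 input reads and ≥1 read per output were kept. Fitness is log2(genotype enrichment/wild-type enrichment), using inverse-variance-weighted replicate averages.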

| Variant | polymerase ribozyme fitness (log ratio) |
| --- | --- |
| U7A U53A U56A | ≤ -4.2 |
| C8A A17G A73U U78G C87U | ≤ -4.2 |
| U7G G50C C87G C125U G133A G140A A142U | ≤ -4.2 |
| U7A C8G A89C C95G | ≤ -4.2 |
| U7C C18G G86A U148A | -4.2 |
| U7A A22C A24U C54G G83A | ≤ -4.2 |
| U6G G92A | -2.59 |
| U7A A119G A120C | -3.25 |
| U7C A73G U82A G136C | ≤ -4.2 |
| U6G U13G U44A A60G C69G C93A C118A | ≤ -4.2 |
| U7A C18U A91U A97U U102C U144G | ≤ -4.2 |
| C8A C18U A20G U45A G59C G62A C76U C114G | ≤ -4.2 |
| C8A A22U C79G G81U C95U A107U C108U | ≤ -4.2 |
| U7A A26U C27U A41U U55G C93U | ≤ -4.2 |
| U7C G46A G65U C76A U77G C79A G94A C96A U135A U144G G152U | ≤ -4.2 |
| C8A A26U A37C G59A C93U | ≤ -4.2 |
| C8G A24G C54U G68A G71A A91U C95A | ≤ -4.2 |
| U7A A24C G50U A52U C87G | ≤ -4.2 |
| C8A G88U G92U C95U A106C U127G | ≤ -4.2 |
| U7C C27A C69G G86A G100C | ≤ -4.2 |
| U7G G11A C18A A37G G50A C85U G112U | ≤ -4.2 |

| Variant | polymerase ribozyme fitness (log ratio) |
| --- | --- |
| U7A A26C U31A G34C G70U U78G G117A C118U A119C | ≤ -4.2 |
| C8A A52C C75U C95G C96U U109A | ≤ -4.2 |
| U7G A21C C32A A49C U53C C69U A142C | ≤ -4.2 |
| U7G C10A C51A U82G G88A C108U U111C G133U G143C | ≤ -4.2 |
| C8G C18U C38U G50C C54U G65C C87U C99G | ≤ -4.2 |
| U7G G50C G58U C63U C76A G92A C149G | ≤ -4.2 |
| U7G C38A G83A G84U U148C | ≤ -4.2 |
| U7C C18U U61C C69A C93A C114U | ≤ -4.2 |
| U7C A24U G84U C87G A107C G112U G133U | ≤ -4.2 |
| U6G G50C | -3.07 |
| U7G G48C G84A | -3.94 |
| C8A A16C C18G A49C C95U A98G A142U | ≤ -4.2 |
| C8A C18U C35G C57U C76A G92U G117C U134A | ≤ -4.2 |
| C8G A17C C18G A41C A52U G83A G140U | ≤ -4.2 |
| U7C G11C G59A G71C C76U G84U A138C | ≤ -4.2 |
| U6G U134C | -0.128 |
| U6G G59C | 0.358 |
| U7G U15A A41U A66C G94U C99G G133U U148G | ≤ -4.2 |
| C8A A19G C57G G88A U146G | ≤ -4.2 |
| U7G A19U A52U U56A A91G C108A | ≤ -4.2 |
| U7A U33G C79A C116U U144C | ≤ -4.2 |

| Variant | polymerase ribozyme fitness (log ratio) |
| --- | --- |
| U7C A23U C87A A89G C116U C125U | ≤ -4.2 |
| U7G A40U C43G A91U | ≤ -4.2 |
| C8A A16G G50U G83C U135C G136C | ≤ -4.2 |
| U7A C54A C72A | ≤ -4.2 |
| U7G G50U | -3.02 |
| U7A A19C G92C C105A A115U C116U A137U | ≤ -4.2 |
| C8A U31G C36U C114U A142C | -4.19 |
| C8A U56A C79U G84C G112A C131U U146A | ≤ -4.2 |
| U6G G100A A107U A113U | ≤ -4.2 |
| U7C C57G A98G | -3.3 |
| U7G U53A U56G G84U U148C | ≤ -4.2 |
| U7G A12G A52U C57A A73G C93G | ≤ -4.2 |
| U7A C10A C14U C32G C36A U53G U55G U61A G67C U82G C87G C96U C103G | ≤ -4.2 |
| C8A A16G A29U A47U G71U C93A A106G G133U C149U | ≤ -4.2 |
| C8A A12U U61A C79U G84U C85G C118U A119G C129A G143C U148G | ≤ -4.2 |
| U7G C95U | -2.93 |
| U6G G50U C95U | 0.0133 |
| C8A G48C U55A | ≤ -4.2 |
| U7G C32U C54G C96U | ≤ -4.2 |
| U7G G92U | -2.39 |
| U7A C76U G94A C105U U151A | -3.84 |

| Variant | polymerase ribozyme fitness (log ratio) |
| --- | --- |
| C8A C14U A21C U53A G83A A150C | ≤ -4.2 |
| U7A A49C C103A U139A | ≤ -4.2 |
| U7A C35A C87A C93A | ≤ -4.2 |
| U6G G86C U135G | ≤ -4.2 |
| C8A A12G A17G U56A A97U A147C | ≤ -4.2 |
| C8G A12U G25A A28U A39C G58C G94U U144G | ≤ -4.2 |
| U7G G11U A16G A24C U31G G34U A98G G117C | ≤ -4.2 |
| C8A G88A | ≤ -4.2 |
| U7G A21C C35A A47C C99A C123A | ≤ -4.2 |
| U7C G46C U56A U77C G81A G86U G100A G133U | ≤ -4.2 |
| C8A C43U G46A A73G C85U U134G U151A | ≤ -4.2 |
| U6G U7C U55A U135A | -4.01 |
| U7A U9A A98G A121G | ≤ -4.2 |
| C8A C35U C43A G83C G141U | ≤ -4.2 |
| U7A A16U A20G G48A C57A G58U A64G C87A G92U G126A C129A A137C | ≤ -4.2 |
| U7G C10A C75A C87A C125G A138U | ≤ -4.2 |
| C8A C14U A37G C54U C85U | ≤ -4.2 |
| U7G G50C U56G G94C | ≤ -4.2 |
| C8A A39G G84U A106U C149G | ≤ -4.2 |
| C8A C27A C57G G92A | ≤ -4.2 |
| C8G A29G A60U U77A C93A C123U | ≤ -4.2 |
